# Source: patent US20130252901A1 (KIMONELLA VENTURES, published 2013)
# T1: Ac-DAEFRHDSGYEVHHQKGGGGC-NH2, immobilized peptide fragment corresponding to the 1-16 region of the amyloid-β … (N-terminal acetyl (Ac); C-terminal amide (NH2); C-terminal cysteine bound to the CM5 chip through a thiol bond)
# T1 construct: Synthetic 21-mer; Aβ 1-16 plus GGGG linker and Cys for immobilisation; also called ligand; target ligand
# T1 peptide: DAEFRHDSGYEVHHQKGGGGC
# Molecular target: complete β peptide 1-40, marked by a fluorescent marker (UniProt P05067 672-711, fluorescent marker, kind and position not stated)
# Assay: cell-based or functional assay
# complete β peptide 1-40, marked by a fluorescent marker, sequence (P05067 672-711 limits assumed): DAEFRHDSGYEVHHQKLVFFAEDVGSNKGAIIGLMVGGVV
row,Binder,"inhibition of the aggregation of the Aβ peptide (fluorescence of marked Aβ 1-40 bound to the wells, SYNTHALOID SCREENING PLATE kit), IC50 [µM]"
1,Ac-HAEE-NH2 (also called ID; NO; 19) [Ac-HAEE-NH2],20
2,Ac-RADD-NH2 (also called ID; NO) [Ac-RADD-NH2],20

# Molecular target: T1, Ac-DAEFRHDSGYEVHHQKGGGGC-NH2, …
# Assay: SPR, BIACORE 3000, procedure of Example 1
row,Binder,binding result
1,Ac-AADD-NH2 (also called ID; NO; 32) [Ac-AADD-NH2],no binding (tested: Kd from 10^-3 to 10^-4 M)
2,Ac-AADE-NH2 (also called ID; NO; 35) [Ac-AADE-NH2],no binding (tested: Kd from 10^-3 to 10^-4 M)
3,Ac-AAEE-NH2 (also called ID; NO; 29) [Ac-AAEE-NH2],no binding (tested: Kd from 10^-3 to 10^-4 M)
4,Ac-HAAD-NH2 (also called ID; NO; 33) [Ac-HAAD-NH2],no binding (tested: Kd from 10^-3 to 10^-4 M)
5,Ac-HAAE-NH2 (also called ID; NO; 31) [Ac-HAAE-NH2],no binding (tested: Kd from 10^-3 to 10^-4 M)
6,Ac-HADA-NH2 (also called ID; NO; 34) [Ac-HADA-NH2],no binding (tested: Kd from 10^-3 to 10^-4 M)
7,Ac-HAEA-NH2 (also called ID; NO; 30) [Ac-HAEA-NH2],no binding (tested: Kd from 10^-3 to 10^-4 M)
8,Ac-KAAE-NH2 (also called ID; NO; 38) [Ac-KAAE-NH2],no binding (tested: Kd from 10^-3 to 10^-4 M)
9,Ac-RAAE-NH2 (also called ID; NO; 37) [Ac-RAAE-NH2],no binding (tested: Kd from 10^-3 to 10^-4 M)
10,Ac-RADA-NH2 (also called ID; NO; 36) [Ac-RADA-NH2],no binding (tested: Kd from 10^-3 to 10^-4 M)
11,Ac-HAEESE-NH2 (also called ID; NO; 41) [Ac-HAEESE-NH2],no binding (tested: Kd from 10^-3 to 10^-4 M)
12,Ac-HAEEAD-NH2 (also called ID; NO; 40) [Ac-HAEEAD-NH2],no binding (tested: Kd from 10^-3 to 10^-4 M)
13,Ac-HAEEGE-NH2 (also called ID; NO; 42) [Ac-HAEEGE-NH2],no binding (tested: Kd from 10^-3 to 10^-4 M)
14,Ac-HAEEQE-NH2 (also called ID; NO; 43) [Ac-HAEEQE-NH2],no binding (tested: Kd from 10^-3 to 10^-4 M)
15,Ac-HAEESD-NH2 (also called ID; NO; 39) [Ac-HAEESD-NH2],no binding (tested: Kd from 10^-3 to 10^-4 M)
16,Ac-LAHAEE-NH2 (also called ID; NO; 44) [Ac-LAHAEE-NH2],no binding (tested: Kd from 10^-3 to 10^-4 M)
17,Ac-FSHAEE-NH2 (also called ID; NO; 46) [Ac-FSHAEE-NH2],no binding (tested: Kd from 10^-3 to 10^-4 M)
18,Ac-IAHAEE-NH2 (also called ID; NO; 45) [Ac-IAHAEE-NH2],no binding (tested: Kd from 10^-3 to 10^-4 M)
19,Ac-ISHAEE-NH2 (also called ID; NO; 48) [Ac-ISHAEE-NH2],no binding (tested: Kd from 10^-3 to 10^-4 M)
20,Ac-LGHAEE-NH2 (also called ID; NO; 47) [Ac-LGHAEE-NH2],no binding (tested: Kd from 10^-3 to 10^-4 M)
21,Ac-HSLAHAEESD-NH2 (also called ID; NO; 49) [Ac-HSLAHAEESD-NH2],no binding (tested: Kd from 10^-3 to 10^-4 M)
22,Ac-KNIAHAEEAD-NH2 (also called ID; NO; 50) [Ac-KNIAHAEEAD-NH2],no binding (tested: Kd from 10^-3 to 10^-4 M)
23,Ac-RNFSHAEESE-NH2 (also called ID; NO; 51) [Ac-RNFSHAEESE-NH2],no binding (tested: Kd from 10^-3 to 10^-4 M)
24,Ac-KQLGHAEEGE-NH2 (also called ID; NO; 52) [Ac-KQLGHAEEGE-NH2],no binding (tested: Kd from 10^-3 to 10^-4 M)
25,Ac-RQISHAEEQE-NH2 (also called ID; NO; 53) [Ac-RQISHAEEQE-NH2],no binding (tested: Kd from 10^-3 to 10^-4 M)
26,Ac-DDHSLAHAEE-NH2 (also called ID; NO; 54) [Ac-DDHSLAHAEE-NH2],no binding (tested: Kd from 10^-3 to 10^-4 M)
27,Ac-EEKNIAHAEE-NH2 (also called ID; NO; 55) [Ac-EEKNIAHAEE-NH2],no binding (tested: Kd from 10^-3 to 10^-4 M)
28,Ac-EERNFSHAEE-NH2 (also called ID; NO; 56) [Ac-EERNFSHAEE-NH2],no binding (tested: Kd from 10^-3 to 10^-4 M)
29,Ac-DEKQLGHAEE-NH2 (also called ID; NO; 57) [Ac-DEKQLGHAEE-NH2],no binding (tested: Kd from 10^-3 to 10^-4 M)
30,Ac-DERQISHAEE-NH2 (also called ID; NO; 58) [Ac-DERQISHAEE-NH2],no binding (tested: Kd from 10^-3 to 10^-4 M)

# Molecular target: T1, Ac-DAEFRHDSGYEVHHQKGGGGC-NH2, …
# Assay: SPR, BIACORE T100, ligand immobilised on CM5 chip, peptide as analyte 50-2,000 µM, no zinc, kinetic fit
Binder,Kd [µM],koff [s⁻¹]
Ac-HADD-NH2 (also called ID; NO) [Ac-HADD-NH2],3250,0.0104
Ac-HAEE-NH2 (also called ID; NO; 19) [Ac-HAEE-NH2],90,3.5e-05
Ac-KADE-NH2 (also called ID; NO; 15) [Ac-KADE-NH2],4500,0.0096
Ac-KAED-NH2 (also called ID; NO) [Ac-KAED-NH2],3300,0.019
Ac-RADD-NH2 (also called ID; NO) [Ac-RADD-NH2],13,0.00024
Ac-RAEE-NH2 (also called ID; NO; 23) [Ac-RAEE-NH2],7700,0.0112
Ac-DDAK-NH2 (also called ID; NO) [Ac-DDAK-NH2],1370,0.0062
Ac-DEAR-NH2 (also called ID; NO; 12) [Ac-DEAR-NH2],1980,0.00709

# Molecular target: T1, Ac-DAEFRHDSGYEVHHQKGGGGC-NH2, …
# Assay: SPR, BIACORE 3000, ligand immobilised on CM5 chip by thiol bond, peptide as analyte 0-25 µM, response at equilibrium; Example 1, BIACORE 3000, response at equilibrium
# Procedure: The SPR spectroscopy experiments were conducted with the BIACORE 3000 apparatus. The reagents for immobilizing the amyloid-β peptide fragment (EDC, NHS, PDEA and cysteine) were bought from GE Healthcare (USA). The buffer used for immobilizing the peptide ligand by formation of thiol bonds was 10 mM sodium acetate at pH 4.5. The regeneration buffer was an HBS buffer containing a medium with 10 mM HEPES and 3 mM EDTA, 0.005% of surfactant P20 and 150 mM NaCl at pH 7.4. […] was a HBS buffer at pH 7.4 and a HEPES buffer at pH 6.8, 50 mM, with 100 μM of Zn(II) ions for the reactive tetrapeptide Ac-HAEE-NH₂. All the buffers were filtered before use.
# The peptide fragment of the ligand was: Ac-[…]-NH₂, corresponding to the sequence SEQ. ID. NO.26. This peptide with 21 amino acids contains the 16 amino acids of the N-terminal end of the binding domain of the amyloid-β, i.e. […] (SEQ. ID. NO.25), followed by 4 glycine amino acids and a cysteine C-Terminal end. […]
# The reagent Ac-HAEE-NH₂ was prepared by dilution with 7 concentrations, i.e. 0, 2, 5, 10, 15, 20 and 25 μM, and injected in a multichannel mode (20 μL QUICKINJECT, 5 μL/min). […] Next, the dissociation constant Kd was calculated in a known way from curves established for the response at equilibrium (Req) versus the concentration (M) in the BIA evaluation 4.1 program.
row,Binder,Kd [µM]
1,Ac-HAEE-NH2 (also called ID; NO; 19) [Ac-HAEE-NH2],0.022
